Results on two substances are retold here after publication PMC12609908.

Data set [1] has as its target T1, CutR (Mycobacterium sp. strain JC1) (UniProt D5G1X9).
T1 sequence: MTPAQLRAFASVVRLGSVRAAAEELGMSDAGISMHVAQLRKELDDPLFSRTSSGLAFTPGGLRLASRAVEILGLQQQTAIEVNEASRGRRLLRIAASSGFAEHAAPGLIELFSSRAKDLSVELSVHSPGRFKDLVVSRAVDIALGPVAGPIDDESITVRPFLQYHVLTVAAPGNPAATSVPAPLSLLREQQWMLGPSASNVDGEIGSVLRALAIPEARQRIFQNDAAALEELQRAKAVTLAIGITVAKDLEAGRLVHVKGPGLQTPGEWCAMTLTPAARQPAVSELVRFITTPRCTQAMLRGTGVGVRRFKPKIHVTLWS
Put plainly: EMSA. To be noted: 50 mM Tris-HCl pH 8.0, 100 mM NaCl, 40% glycerol, 5 mM DTT, 2 mM EDTA, 4 °C 1 h; 10% native PAGE in 0.5x TBE at 4 °C.

Data set [2] has as its target CutR, LysR-type transcriptional regulator from Mycobacterium sp. strain JC1 (native protein) (Mycobacterium sp. strain JC1). As to the kind of experiment: SEC; Superdex G-75 column, 20 mM Tris-HCl pH 7.5, 500 mM NaCl, 5 mM beta-mercaptoethanol; size standards conalbumin, ovalbumin, carbonic anhydrase, ribonuclease A, aprotinin.

With “ACCCCGAGTTAAGTGATTCCTTAACTCGCTATTGACGCCATCGCGGCGGCAACGGAAACTAGCCACTTCAGCCACGACGTTGTGAGGATGATCACATGCAA (double strand) [IR1 to CRP motif fragment (101 bp)]”, in data set [1], the binding result is listed as “binds”.

For “CutR, LysR-type transcriptional regulator from Mycobacterium sp. strain JC1 (native protein) (natural protein)”, the stoichiometry N in data set [2] is 2.
